Here are results for nine sequences from the supplement of paper PMC11246515.

The nature of this data set: total protein half-life in vivo (active degradation + dilution); higher = more stable protein.
Setting [1] is: E. coli NCM3722 delta-clpP delta-lon delta-hslV, growth: N-lim chemostat, doubling time 6 h.
The mark [2] stands for this setting: E. coli NCM3722 delta-clpP, growth: N-lim chemostat, doubling time 6 h.
[3] abbreviates: E. coli NCM3722 delta-hslV, growth: N-lim chemostat, doubling time 6 h.
[4] abbreviates: E. coli NCM3722 delta-lon, growth: N-lim chemostat, doubling time 6 h.
Setting [5] is: E. coli NCM3722 delta-smpB, growth: N-lim chemostat, doubling time 6 h.
The mark [6] stands for this setting: wild type E. coli NCM3722, growth: C-lim chemostat, doubling time 3 h.
[7] abbreviates: wild type E. coli NCM3722, growth: C-lim chemostat, doubling time 6 h.
[8] abbreviates: wild type E. coli NCM3722, growth: C-lim chemostat, doubling time 12 h.
The mark [9] stands for this setting: wild type E. coli NCM3722, growth: N-lim chemostat, doubling time 6 h.
[10] abbreviates: wild type E. coli NCM3722, growth: N-lim chemostat, doubling time 12 h.
Where [11] appears, read: wild type E. coli NCM3722, growth: P-lim chemostat, doubling time 6 h.
Where [12] appears, read: wild type E. coli NCM3722, growth: P-lim chemostat, doubling time 12 h.

± gives the standard deviation of the averaged measurements.

Consider “MDLRDLKTFLHLAESRHFGRSARAMHVSPSTLSRQIQRLEEDLGQPLFVRDNRTVTLTEAGEELRVFAQQTLLQYQQLRHTIDQQGPSLSGELHIFCSVTAAYSHLPPILDRFRAEHPSVEIKLTTGDAADAMEKVVTGEADLAIAGKPETLPGAVAFSMLENLAVVLIAPALPCPVRNQVSVEKPDWSTVPFIMADQGPVRRRIELWFRRNKISNPMIYATVGGHEAMVSMVALGCGVALLPEVVLENSPEPVRNRVMILERSDEKTPFELGVCAQKKRLHEPLIEAFWKILPNHK”, for which the “total protein half-life in vivo” value is 6.95 ± 1.4 h under setting [1]; 6.14 ± 0.2 h under setting [2]; 5.87 ± 0.32 h under setting [3]; 6.22 ± 0.23 h under setting [4]; 6.35 ± 1.1 h under setting [5]; 2.78 ± 0.13 h under setting [6]. Moreover, the “total protein half-life in vivo” value reads like this: under setting [7], 5.47 ± 0.66 h; under setting [8], 11.4 ± 3.2 h; under setting [9], 5.9 ± 0.012 h; under setting [10], 10.9 ± 1.1 h; under setting [11], 5.48 ± 0.1 h; under setting [12], 11 ± 0.99 h.
In the case of “MEKEQLIEIANTIMPFGKYKGRRLIDLPEEYLLWFARKDEFPAGKLGELMQITLLIKTEGLTQLVQPLKRPL [P0AD40]”, the “total protein half-life in vivo” value by setting is: under setting [1], 6.16 ± 0.29 h; under setting [7], 5.09 h; under setting [8], 6.67 h; under setting [11], 3.3 h; under setting [12], 8.7 ± 2.7 h.
Regarding “MNNHFKCIGIVGHPRHPTALTTHEMLYRWLCTKGYEVIVEQQIAHELQLKNVKTGTLAEIGQLADLAVVVGGDGNMLGAARTLARYDIKVIGINRGNLGFLTDLDPDNAQQQLADVLEGHYISEKRFLLEAQVCQQDCQKRISTAINEVVLHPGKVAHMIEFEVYIDEIFAFSQRSDGLIISTPTGSTAYSLSAGGPILTPSLDAITLVPMFPHTLSARPLVINSSSTIRLRFSHRRNDLEISCDSQIALPIQEGEDVLIRRCDYHLNLIHPKDYSYFNTLSTKLGWSKKLF [P0A7B3]”, the “total protein half-life in vivo” value reads like this: under setting [2], 4.25 ± 0.11 h; under setting [3], 5.35 ± 1.2 h; under setting [4], 6.6 ± 1.1 h; under setting [5], 4.75 ± 0.69 h; under setting [6], 3.19 ± 0.49 h; under setting [7], 5.33 ± 0.2 h. The “total protein half-life in vivo” value was found to be 12.1 h under setting [8]; 4.4 ± 0.37 h under setting [9]; 7.59 h under setting [10]; 5.9 ± 0.21 h under setting [11]; 11.1 ± 0.2 h under setting [12].
Take “MNLQHHFLIAMPALQDPIFRRSVVYICEHNTNGAMGIIVNKPLENLKIEGILEKLKITPEPRDESIRLDKPVMLGGPLAEDRGFILHTPPSNFASSIRISDNTVMTTSRDVLETLGTDKQPSDVLVALGYASWEKGQLEQEILDNAWLTAPADLNILFKTPIADRWREAAKLIGVDILTMPGVAGHA [P0A8W5]”: the “total protein half-life in vivo” value by setting is: under setting [1], 4.47 ± 0.45 h; under setting [2], 5.88 ± 1.8 h; under setting [3], 4.32 ± 0.34 h; under setting [4], 2.88 ± 0.18 h; under setting [5], 4.027 ± 0.034 h; under setting [6], 2.93 ± 0.32 h. Further, the “total protein half-life in vivo” value was found to be 5.38 ± 0.81 h under setting [7]; 8.21 ± 0.33 h under setting [8]; 4.39 ± 0.34 h under setting [9]; 6.81 ± 0.54 h under setting [10]; 5.075 ± 0.018 h under setting [11]; 10.2 ± 2.2 h under setting [12].
Take “MSNQGEYPEDNRVGKHEPHDLSLTRRDLIKVSAATAATAVVYPHSTLAASVPAATPAPEIMPLTLKVNGKTEQLEVDTRTTLLDTLRENLHLIGTKKGCDHGQCGACTVLVNGRRLNACLTLAVMHQGAEITTIEGLGSPDNLHPMQAAFIKHDGFQCGYCTSGQICSSVAVLKEIQDGIPSHVTVDLVSAPETTADEIRERMSGNICRCGAYANILAAIEDAAGEIKS”: the “total protein half-life in vivo” value reads like this: under setting [1], 2.91 ± 0.9 h; under setting [4], 2.02 h.
Turning to “MNNRVHQGHLARKRFGQNFLNDQFVIDSIVSAINPQKGQAMVEIGPGLAALTEPVGERLDQLTVIELDRDLAARLQTHPFLGPKLTIYQQDAMTFNFGELAEKMGQPLRVFGNLPYNISTPLMFHLFSYTDAIADMHFMLQKEVVNRLVAGPNSKAYGRLSVMAQYYCNVIPVLEVPPSAFTPPPKVDSAVVRLVPHATMPHPVKDVRVLSRITTEAFNQRRKTIRNSLGNLFSVEVLTGMGIDPAMRAENISVAQYCQMANYLAENAPLQES”, the “total protein half-life in vivo” value is 5.45 ± 0.071 h under setting [1]; 5.39 ± 0.83 h under setting [2]; 5.18 ± 0.36 h under setting [3]; 5.84 ± 0.95 h under setting [4]; 5.39 ± 0.63 h under setting [5]; 2.972 ± 0.017 h under setting [6]. Moreover, the “total protein half-life in vivo” value under setting [7] was determined as 5.41 ± 0.75 h; the “total protein half-life in vivo” value under setting [8] worked out at 12.5 ± 1.5 h; the “total protein half-life in vivo” value under setting [9] turned out to be 5.24 ± 0.29 h; the “total protein half-life in vivo” value under setting [10] was 9.91 ± 1.2 h; the “total protein half-life in vivo” value under setting [11] is 5.56 ± 0.3 h; the “total protein half-life in vivo” value under setting [12] came out at 10.6 ± 0.28 h.
For “MTNLPKFSTALLHPRYWLTWLGIGVLWLVVQLPYPVIYRLGCGLGKLALRFMKRRAKIVHRNLELCFPEMSEQERRKMVVKNFESVGMGLMETGMAWFWPDRRIARWTEVIGMEHIRDVQAQKRGILLVGIHFLTLELGARQFGMQEPGIGVYRPNDNPLIDWLQTWGRLRSNKSMLDRKDLKGMIKALKKGEVVWYAPDHDYGPRSSVFVPLFAVEQAATTTGTWMLARMSGACLVPFVPRRKPDGKGYQLIMLPPECSPPLDDAETTAAWMNKVVEKCIMMAPEQYMWLHRRFKTRPEGVPSRY [P0ACV0]”, the “total protein half-life in vivo” value runs as follows: under setting [1], 6.85 h; under setting [2], 5.84 h; under setting [3], 6.63 h; under setting [5], 5.81 h; under setting [7], 7.93 h.
Regarding “MRACINNQQIRHHNKCVILELLYRQKRANKSTLARLAQISIPAVSNILQELESEKRVVNIDDESQTRGHSSGTWLIAPEGDWTLCLNVTPTSIECQVANACLSPKGEFEYLQIDAPTPQALLSEIEKCWHRHRKLWPDHTINLALAIHGQVDPVTGVSQTMPQAPWTTPVEVKYLLEEKLGIRVMVDNDCVMLALAEKWQNNSQERDFCVINVDYGIGSSFVINEQIYRGSLYGSGQIGHTIVNPDGVVCDCGRYGCLETVASLSALKKQARVWLKSQPVSTQLDPEKLTTAQLIAAWQSGEPWITSWVDRSANAIGLSLYNFLNILNINQIWLYGRSCAFGENWLNTIIRQTGFNPFDRDEGPSVKATQIGFGQLSRAQQVLGIGYLYVEAQLRQI”, the “total protein half-life in vivo” value reads like this: under setting [1], 6.39 ± 0.56 h; under setting [2], 6.61 h; under setting [3], 5.18 ± 0.99 h; under setting [4], 5.81 ± 0.79 h; under setting [5], 3.95 ± 0.094 h; under setting [6], greater than 4 h. The “total protein half-life in vivo” value was found to be 1.97 h under setting [7]; 3 h under setting [8]; 5.48 ± 0.83 h under setting [9]; 7.97 h under setting [10]; 3.12 h under setting [11]; 4.85 h under setting [12].
With “MRICSDQPCIVLLTEKDVWIRVNGKEPISLKANHMALLNCENNIIDVSSLNNTLVAHISHDIIKDYLRFLNKDLSQIPVWQRSATPILTLPCLTPDVFRVAAQHSMMPAETESEKERTRALLFTVLSRFLDSKKFVSLMMYMLRNCVSDSVYQIIESDIHKDWNLSMVASCLCLSPSLLKKKLKSENTSYSQIITTCRMRYAVNELMMDGKNISQVSQSCGYNSTSYFISVFKDFYGMTPLHYVSQHRERTVA”, the “total protein half-life in vivo” value under setting [5] was determined as 1.24 h.
